# Measurements taken from patent US20250205308A1, “Supraparticles” (THE BIONICS INSTITUTE OF AUSTRALIA, priority 2017, published 2025).
# Assay: In vivo clearance of radiolabelled neurotrophin-3 from the cochlea after supraparticle implantation (whole cochlear gamma counts)
# Description: In vivo studies were carried out to determine the drug payload and clearance of neurotrophin delivered in a supraparticle implanted into the ear after 4 hr, 3 day and 7 days of implantation. The objective was to determine the amount of neurotrophin remaining in the cochlea over time.
# 1 SP containing radiolabelled neurotrophin-3 was implanted into each cochlea. Cochleae were harvested following 4 hrs (n=5), 3d (n=7) or 7d (n=4). Whole cochlear gamma counts were measured to determine the clearance of neurotrophin-3 over time. After 1 week of implantation each SP contained ˜2 μg of neurotrophin-3 (˜40%) of initial loaded amount.
# Further experiments (n=2) were carried out to examine clearance of neurotrophin-3 following round window delivery. 3 days after implantation-whole cochlear measurements were again used to determine the clearance of neurotrophin-3 from the round window membrane.
# [1] = 1 SP implanted into each cochlea, after 1 week of implantation
substance,measurement,setting,value
neurotrophin-3: Radiolabelled neurotrophin delivered in a supraparticle implanted into the cochlea,neurotrophin-3 remaining (% of initial loaded amount),[1],~40%
same,neurotrophin-3 remaining per SP,[1],~2 µg
same,neurotrophin-3 remaining,"intracochlear delivery, 3 days",56%
same,neurotrophin-3 remaining,"round window delivery, 3 days after implantation",47.4%
